Data reported in publication PMC7079959.

Target: T1, MS2 bacteriophage coat protein (bacteriophage MS2), P03612
T1 chain: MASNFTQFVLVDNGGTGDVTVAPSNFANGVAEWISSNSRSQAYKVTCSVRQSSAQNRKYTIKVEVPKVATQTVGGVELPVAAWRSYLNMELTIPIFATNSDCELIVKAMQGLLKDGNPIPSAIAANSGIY
Test: SEC
Details: remark: other sources report otherwise

B1: MS2 bacteriophage coat protein, P03612 1-130 (natural protein)
chain: T1 chain
stoichiometry N: 2
